Assays:
Assay in all cases: LC/MS-MS of diol formed
Type in all cases: biochemical, Homo sapiens
[1] = substrate: CC/C=C\C/C=C\CC1OC1C/C=C\C/C=C\C/C=C\CCC(=O)O; settings: Tris/HCl 0.1 M pH 9.0, 0.1 mg/mL BSA, 37 °C
Source text: (§1) LC/MS-MS of diol formed on mEH

[2] = substrate: CCCCC/C=C\C/C=C\CC1OC1C/C=C\CCCC(=O)O; settings: Tris/HCl 0.1 M pH 9.0, 0.1 mg/mL BSA, 37 °C
Source text: as §1

[3] = substrate: CCCCC/C=C\C[C@@H]1O[C@H]1/C=C/C(O)C/C=C\CCCC(=O)O; settings: Tris/HCl 0.1 M pH 9.0, 0.1 mg/mL BSA, 37 °C
Source text: as §1

[4] = substrate: CCCCCC1OC1C/C=C\C/C=C\C/C=C\CCCC(=O)O; settings: Tris/HCl 0.1 M pH 9.0, 0.1 mg/mL BSA, 37 °C
Source text: as §1

[5] = substrate: CC/C=C\C/C=C\CC1OC1C/C=C\C/C=C\C/C=C\CCC(=O)O; settings: sodium phosphate 0.1 M pH 7.4, 0.1 mg/mL BSA, 37 °C, crude membrane extract
Source text: (§2) LC/MS-MS of diol formed on EH3

[6] = substrate: CCCCC/C=C\C/C=C\CC1OC1C/C=C\CCCC(=O)O; settings: sodium phosphate 0.1 M pH 7.4, 0.1 mg/mL BSA, 37 °C, crude membrane extract
Source text: as §2

[7] = substrate: CCCCC/C=C\C[C@@H]1O[C@H]1/C=C/C(O)C/C=C\CCCC(=O)O; settings: sodium phosphate 0.1 M pH 7.4, 0.1 mg/mL BSA, 37 °C, crude membrane extract
Source text: as §2

[8] = substrate: CCCCCC1OC1C/C=C\C/C=C\C/C=C\CCCC(=O)O; settings: sodium phosphate 0.1 M pH 7.4, 0.1 mg/mL BSA, 37 °C, crude membrane extract
Source text: as §2

B1: mEH (Homo sapiens) (protein)
chain: MWLEILLTSVLGFAIYWFISRDKEETLPLEDGWWGPGTRSAAREDDSIRPFKVETSDEEIHDLHQRIDKFRFTPPLEDSCFHYGFNSNYLKKVISYWRNEFDWKKQVEILNRYPHFKTKIEGLDIHFIHVKPPQLPAGHTPKPLLMVHGWPGSFYEFYKIIPLLTDPKNHGLSDEHVFEVICPSIPGYGFSEASSKKGFNSVATARIFYKLMLRLGFQEFYIQGGDWGSLICTNMAQLVPSHVKGLHLNMALVLSNFSTLTLLLGQRFGRFLGLTERDVELLYPVKEKVFYSLMRESGYMHIQCTKPDTVGSALNDSPVGLAAYILEKFSTWTNTEFRYLEDGGLERKFSLDDLLTNVMLYWTTGTIISSQRFYKENLGQGWMTQKHERMKVYVPTGFSAFPFELLHTPEKWVRFKYPKLISYSYMVRGGHFAAFEEPELLAQDIRKFLSVLERQ
Km [1]: 2.9 ± 0.4 µM
Vmax [1]: 0.445 µmol/min/mg
kcat [1]: 0.37 ± 0.01 s⁻¹
kcat/Km [1]: 130000 ± 20000 M⁻¹ s⁻¹
Km [2]: 2.5 ± 0.6 µM
Vmax [2]: 0.038 µmol/min/mg
kcat [2]: 0.032 ± 0.002 s⁻¹
kcat/Km [2]: 13000 ± 1000 M⁻¹ s⁻¹
Km [3]: 51 ± 14 µM
Vmax [3]: 0.023 µmol/min/mg
kcat [3]: 0.019 ± 0.003 s⁻¹
kcat/Km [3]: 370 ± 60 M⁻¹ s⁻¹
Km [4]: 80 ± 6 µM
Vmax [4]: 0.053 µmol/min/mg
kcat [4]: 0.044 ± 0.003 s⁻¹
kcat/Km [4]: 550 ± 10 M⁻¹ s⁻¹

B2: EH3 (Homo sapiens) (protein)
chain: MPELVVTALLAPSRLSLKLLRAFMWSLVFSVALVAAAVYGCIALTHVLCRPRRGCCGRRRSASPACLSDPSLGEHGFLNLKSSGLRLHYVSAGRGNGPLMLFLHGFPENWFSWRYQLREFQSRFHVVAVDLRGYGPSDAPRDVDCYTIDLLLVDIKDVILGLGYSKCILVAHDWGALLAWHFSIYYPSLVERMVVVSGAPMSVYQDYSLHHISQFFRSHYMFLFQLPWLPEKLLSMSDFQILKTTLTHRKTGIPCLTPSELEAFLYNFSQPGGLTGPLNYYRNLFRNFPLEPQELTTPTLLLWGEKDTYLELGLVEAIGSRFVPGRLEAHILPGIGHWIPQSNPQEMHQYMWAFLQDLLD
Km [5]: 4.3 ± 1.2 µM
Vmax [5]: 0.121 µmol/min/mg
kcat [5]: 0.08 ± 0.01 s⁻¹
kcat/Km [5]: 19000 ± 3000 M⁻¹ s⁻¹
Km [6]: 10 ± 0.5 µM
Vmax [6]: 0.044 µmol/min/mg
kcat [6]: 0.03 ± 0.001 s⁻¹
kcat/Km [6]: 3000 ± 200 M⁻¹ s⁻¹
Km [7]: 14 ± 1 µM
Vmax [7]: 0.017 µmol/min/mg
kcat [7]: 0.014 ± 0.001 s⁻¹
kcat/Km [7]: 1010 ± 30 M⁻¹ s⁻¹
Km [8]: 76 ± 16 µM
Vmax [8]: 0.027 µmol/min/mg
kcat [8]: 0.018 ± 0.003 s⁻¹
kcat/Km [8]: 240 ± 10 M⁻¹ s⁻¹

Source: publication PMC8125816, “Relative Importance of Soluble and Microsomal Epoxide Hydrolases for the Hydrolysis of Epoxy-Fatty Acids in Human Tissues” (International Journal of Molecular Sciences, 2021)
